Columns and labels:
[1] = target: human FcγRIIIa-F176 (human) (UniProt P08637); test: BLI (Octet RED96), biotinylated receptor on SA sensor
[2] = target: human FcγRIIIa-V176 (human) (UniProt P08637); test: as above
[3] = target: Human FcRn (FCGRT&B2M) Protein (human) (UniProt P55899); test: BLI (Octet), FcRn on sensor, pH 6.0
[4] = target: human FcγRIIIa-F176 (human) (UniProt P08637); test: BLI (Octet), receptor on sensor
[5] = target: human FcγRI (human) (UniProt P12314); test: BLI (Octet), receptor on sensor
[6] = target: human FcγRIIIb-NA2 (human) (UniProt O75015); test: BLI (Octet), receptor on sensor
[7] = target: human FcγRIIa-R167 (human) (UniProt P12318); test: BLI (Octet), receptor on sensor
[8] = target: human FcγRIIb (human) (UniProt P31994); test: BLI (Octet), receptor on sensor
[9] = target: human FcγRIIIa-V176 (human) (UniProt P08637); test: BLI (Octet), receptor on sensor
[10] = target: human FcγRIIIb-NA1 (human) (UniProt O75015); test: BLI (Octet), receptor on sensor
[11] = target: human FcγRIIa-H167 (human) (UniProt P12318); test: BLI (Octet), receptor on sensor
[12] = target: human C1q (human) (UniProt P02745); test: BLI (Octet), biotinylated antibody on sensor, C1q in solution
[13] = target: Human FcRn (FCGRT&B2M) Protein (human) (UniProt P55899); test: BLI (Octet RED96), His-tagged FcRn on Ni-NTA sensor, pH 6.0
[14] = target: human C1q (human) (UniProt P02745); test: BLI (Octet RED96), biotinylated antibody on SA sensor, C1q in solution
[15] = target: human CLDN18.2 (human); test: flow cytometry on NCI-H146 cells; unit taken from the concentration axis; fit of the flat control curve

Chain of human FcγRIIIa-F176 (human) (P08637 17-208 limits assumed): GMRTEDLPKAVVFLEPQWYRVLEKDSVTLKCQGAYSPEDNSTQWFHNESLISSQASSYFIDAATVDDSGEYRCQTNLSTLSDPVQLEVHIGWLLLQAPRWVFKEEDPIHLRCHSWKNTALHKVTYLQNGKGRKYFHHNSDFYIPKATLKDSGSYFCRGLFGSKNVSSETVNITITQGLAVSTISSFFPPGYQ
Chain of human C1q (human) (P02745 23-245, chain 1 of 3): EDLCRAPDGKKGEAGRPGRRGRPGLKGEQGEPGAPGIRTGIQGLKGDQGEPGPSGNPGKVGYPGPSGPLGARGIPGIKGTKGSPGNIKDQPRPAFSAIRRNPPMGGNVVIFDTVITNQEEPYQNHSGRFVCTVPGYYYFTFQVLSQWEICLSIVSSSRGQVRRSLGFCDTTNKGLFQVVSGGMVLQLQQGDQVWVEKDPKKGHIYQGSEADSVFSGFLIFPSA
Chain of human C1q (human) (P02746 28-253, chain 2 of 3, further chain): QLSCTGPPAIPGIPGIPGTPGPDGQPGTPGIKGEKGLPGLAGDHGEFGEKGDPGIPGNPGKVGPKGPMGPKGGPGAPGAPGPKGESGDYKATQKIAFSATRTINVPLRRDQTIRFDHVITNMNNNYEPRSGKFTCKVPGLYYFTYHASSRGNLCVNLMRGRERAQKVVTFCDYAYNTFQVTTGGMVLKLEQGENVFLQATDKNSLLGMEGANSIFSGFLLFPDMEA
Chain of human C1q (human) (P02747 29-245, chain 3 of 3, further chain): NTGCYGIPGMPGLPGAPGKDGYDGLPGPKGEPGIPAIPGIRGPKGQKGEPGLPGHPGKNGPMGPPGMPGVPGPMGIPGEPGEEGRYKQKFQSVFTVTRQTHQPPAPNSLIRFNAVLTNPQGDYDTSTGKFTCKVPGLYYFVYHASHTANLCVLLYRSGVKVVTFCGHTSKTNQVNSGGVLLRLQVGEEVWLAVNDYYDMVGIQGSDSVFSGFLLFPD
Chain of human FcγRIIIa-V176 (human) (P08637 17-208 F176V limits assumed): as the sequence (P08637 17-208 limits assumed) above, with F160V counted along it
Chain of Human FcRn (FCGRT&B2M) Protein (human) (P55899 24-297 limits assumed, chain 1 of 2): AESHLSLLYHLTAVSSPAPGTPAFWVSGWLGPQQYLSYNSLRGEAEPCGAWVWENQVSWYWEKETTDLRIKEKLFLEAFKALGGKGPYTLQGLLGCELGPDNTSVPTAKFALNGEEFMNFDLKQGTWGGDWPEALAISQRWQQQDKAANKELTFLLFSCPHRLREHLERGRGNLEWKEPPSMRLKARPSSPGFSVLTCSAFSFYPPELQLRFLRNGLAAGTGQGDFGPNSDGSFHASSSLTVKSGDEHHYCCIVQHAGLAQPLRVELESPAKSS
Chain of Human FcRn (FCGRT&B2M) Protein (human) (P61769 21-119 limits assumed, chain 2 of 2, further chain): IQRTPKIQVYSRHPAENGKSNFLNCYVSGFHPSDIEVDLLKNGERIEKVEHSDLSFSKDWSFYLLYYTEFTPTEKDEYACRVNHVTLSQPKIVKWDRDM
Chain of human FcγRIIb (human) (P31994 46-217 limits assumed): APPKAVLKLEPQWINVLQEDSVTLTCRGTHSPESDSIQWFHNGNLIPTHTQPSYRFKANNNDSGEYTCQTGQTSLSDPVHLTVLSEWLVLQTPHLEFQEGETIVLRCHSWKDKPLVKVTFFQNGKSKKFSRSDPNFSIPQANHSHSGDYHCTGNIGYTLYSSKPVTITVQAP
Chain of human FcγRIIa-H167 (human) (P12318 36-218 limits assumed): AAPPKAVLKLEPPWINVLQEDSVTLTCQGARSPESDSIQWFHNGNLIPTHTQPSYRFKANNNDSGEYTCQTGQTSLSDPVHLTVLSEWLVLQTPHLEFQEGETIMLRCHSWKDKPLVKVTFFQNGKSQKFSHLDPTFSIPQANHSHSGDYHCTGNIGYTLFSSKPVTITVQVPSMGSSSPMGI
Chain of human FcγRIIIb-NA2 (human) (O75015 17-200 N65S limits assumed): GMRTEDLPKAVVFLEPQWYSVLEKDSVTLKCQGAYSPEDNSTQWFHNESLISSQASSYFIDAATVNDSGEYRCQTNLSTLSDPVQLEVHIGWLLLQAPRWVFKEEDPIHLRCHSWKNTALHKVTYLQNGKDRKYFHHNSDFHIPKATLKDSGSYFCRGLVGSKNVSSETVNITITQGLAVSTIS
Chain of human FcγRIIa-R167 (human) (P12318 36-218 H167R limits assumed): as the sequence (P12318 36-218 limits assumed) above, with H132R counted along it
Chain of human FcγRI (human) (P12314 16-288 limits assumed): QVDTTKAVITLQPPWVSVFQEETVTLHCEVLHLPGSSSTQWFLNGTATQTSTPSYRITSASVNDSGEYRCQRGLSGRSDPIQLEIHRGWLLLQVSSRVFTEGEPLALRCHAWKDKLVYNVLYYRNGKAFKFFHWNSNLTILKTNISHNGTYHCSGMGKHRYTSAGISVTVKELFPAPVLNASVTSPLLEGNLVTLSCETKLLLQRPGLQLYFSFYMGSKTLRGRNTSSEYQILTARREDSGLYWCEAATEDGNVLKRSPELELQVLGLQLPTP
Chain of human FcγRIIIb-NA1 (human) (O75015 other isoform, or with tags, fused parts or gaps limits assumed): as the sequence (O75015 17-200 N65S limits assumed) above, with S20R, S49N, N66D, I90V counted along it

Row | Substance | Kd [1] | Kd [2] | Kd [3] | Kd [4] | Kd [5] | Kd [6] | Kd [7] | Kd [8] | Kd [9] | Kd [10] | Kd [11] | Kd [12] | Kd [13] | Kd [14] | EC50 [15]
1 | IMAB362 (antibody) | 232 nM | 61.5 nM | 10.5 nM | 232 nM | 5.22 nM | 3160 nM | 117 nM | 230 nM | 61.5 nM | 3970 nM | 193 nM | 21.5 nM | 10.5 nM | 21.5 nM | –
2 | Isotype Control (antibody) | – | – | – | – | – | – | – | – | – | – | – | – | – | – | 3.67 µg/mL

— patent US20220306765A1
